The target in experiment [1] is T1, human gpr-54 receptor (human, UniProt Q969F8 1-398). The experiment is described as follows: cell-based or functional assay.
In experiment [2] the target is T1, human gpr-54 receptor. Put plainly: cell-based or functional assay. This is another data set of the same source.
Experiment [3] has as its target T1, human gpr-54 receptor. Put plainly: whole-cell competition binding against 125I-kisspeptin, CHO cells stably transfected with human GPR54 (CPM); no lower plateau reached at -5 LogM [211].
Description: (§1) Cell monolayers were placed on ice and exposed to 0.5 mls peptide (10 pM-1 uM); the cells were then incubated at 4° C. for 4 hr. After 4 hrs, cells were washed twice with ice cold Dulbecco's phosphate buffered saline (DPBS; with Calcium and Magnesium) and then 0.5 mls 0.1M Sodium Hydroxide (NaOH) were added to cells for 20 minutes, shaking to lyse cells. Lysates were transferred to plastic tubes and bound radioactivity counted on the gamma counter for 60 seconds.
Experiment [4] deals with T1, human gpr-54 receptor. Put plainly: cell-based or functional assay. This is another data set of the same source.
Experiment [5] addresses T1, human gpr-54 receptor. Put plainly: whole-cell competition binding against 125I-kisspeptin, CHO cells stably transfected with GPR54 (CPM) [208].
Description: as §1
For experiment [6], the target named is T1, human gpr-54 receptor. The experiment is described as follows: whole-cell competition binding against 125I-kisspeptin, CHO cells stably transfected with GPR54 (CPM) [210].
Description: as §1
The target of experiment [7] is T1, human gpr-54 receptor. Put plainly: cell-based or functional assay. The source holds these as a separate data set.
The target of experiment [8] is T1, human gpr-54 receptor. The experiment is described as follows: cell-based or functional assay. The source holds these as a separate data set.
Experiment [9] deals with T1, human gpr-54 receptor. The experiment is described as follows: whole-cell competition binding against 125I-kisspeptin, CHO cells stably transfected with GPR54 (CPM); the fall of the curve lies between Total and -10 LogM [201].
Description: as §1
Experiment [10] addresses T1, human gpr-54 receptor. Put plainly: cell-based or functional assay. This is another data set of the same source.
Experiment [11] addresses T1, human gpr-54 receptor. Put plainly: whole-cell competition binding against 125I-kisspeptin, CHO cells stably transfected with GPR54 (CPM); the fall of the curve lies between Total and -11 LogM [206].
Description: as §1
For experiment [12], the target named is T1, human gpr-54 receptor. The experiment is described as follows: cell-based or functional assay. This is another data set of the same source.
Experiment [13] deals with T1, human gpr-54 receptor. Put plainly: whole-cell competition binding against 125I-kisspeptin, CHO cells stably transfected with GPR54 (CPM); the fall of the curve lies between Total and -11 LogM [203].
Description: as §1
The target in experiment [14] is T1, human gpr-54 receptor. The experiment is described as follows: whole-cell competition binding against 125I-kisspeptin, CHO cells stably transfected with GPR54 (CPM); the drawn curve falls between Total and -10 LogM, which does not fit the printed number [207].
Experiment [15] addresses T1, human gpr-54 receptor. The experiment is described as follows: whole-cell competition binding against 125I-kisspeptin, CHO cells stably transfected with GPR54 (CPM); the fall of the curve lies between Total and -11 LogM [202].
Description: as §1
In experiment [16] the target is T1, human gpr-54 receptor. Put plainly: cell-based or functional assay. This is another data set of the same source.
Experiment [17] deals with T1, human gpr-54 receptor. Put plainly: cell-based or functional assay. The source holds these as a separate data set.
Experiment [18] addresses T1, human gpr-54 receptor. Put plainly: whole-cell competition binding against 125I-kisspeptin, CHO cells stably transfected with hGPR54 (CPM); no lower plateau reached at -5 LogM [186].
Description: as §1
In experiment [19] the target is T1, human gpr-54 receptor. Put plainly: cell-based or functional assay. The source holds these as a separate data set.
Experiment [20] concerns the target T1, human gpr-54 receptor. The experiment is described as follows: whole-cell competition binding against 125I-kisspeptin, CHO cells stably transfected with GPR54 (CPM); the curve falls between Total and -9 LogM [209].
Description: as §1

Non-standard residues stand in square brackets, D forms with d. No end group written: not given here. A value given as a limit tells only on which side of the number the result lay.

T1 sequence (Q969F8 whole entry): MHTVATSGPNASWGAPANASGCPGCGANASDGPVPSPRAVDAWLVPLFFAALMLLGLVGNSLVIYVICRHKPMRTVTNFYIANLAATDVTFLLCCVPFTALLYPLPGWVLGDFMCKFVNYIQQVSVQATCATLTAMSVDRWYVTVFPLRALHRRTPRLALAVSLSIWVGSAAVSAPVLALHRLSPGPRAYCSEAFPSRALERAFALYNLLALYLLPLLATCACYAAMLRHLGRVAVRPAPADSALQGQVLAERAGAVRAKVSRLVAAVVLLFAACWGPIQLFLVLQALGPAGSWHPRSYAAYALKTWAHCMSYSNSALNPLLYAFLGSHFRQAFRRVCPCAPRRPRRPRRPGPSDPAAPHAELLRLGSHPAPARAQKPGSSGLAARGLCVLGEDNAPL

B1: 211 (peptide)
peptide: YNWNG[dF]GLRF-NH2
modifications: N-terminus assumed
SMILES: CC(C)C[C@H](NC(=O)CNC(=O)[C@@H](Cc1ccccc1)NC(=O)CNC(=O)[C@H](CC(N)=O)NC(=O)[C@H](Cc1c[nH]c2ccccc12)NC(=O)[C@H](CC(N)=O)NC(=O)[C@@H](N)Cc1ccc(O)cc1)C(=O)N[C@@H](CCCNC(=N)N)C(=O)N[C@@H](Cc1ccccc1)C(N)=O
notes: kisspeptin-10 analogue; also called YNWNG[(D)-F]GLRF
For B1, in the experiment with human gpr-54 receptor [1], the “IP stimulation (IC50), peptide alone” value was 2570 nM; the “Inhibition of IP stimulation by 10nM Agonist: % Inhibition of Max” value (from here on “Inhibition … % Inhibition of Max”) was determined as 73%; the “Inhibition of IP stimulation by 10nM Agonist: IC50” value (“Inhibition of IP stimulation … IC50” for short) was determined as 1000 nM. The “IP competition with 10nM kisspeptin-10: IC50 [211]” value with human gpr-54 receptor [2] stood at 1000 nM. Further, the IC50 with human gpr-54 receptor [3] is 4320 nM.
As for YNWNGFGLRF-NH2 (kisspeptin-10 analogue) [208], in the experiment with human gpr-54 receptor [1], the “IP stimulation (IC50), peptide alone” value is 45.6 nM; the “Inhibition … % Inhibition of Max” value came to 55%; the “Inhibition of IP stimulation … IC50” value is 1000 nM. Further, the “Antagonistic assay with kisspeptin-10: IC50 [208]” value with human gpr-54 receptor [4] is 1000 nM. The molecule further came in with an IC50 with human gpr-54 receptor [5] of 70.3 nM.

B2: 210 (peptide)
peptide: YNWNGFG[dW]RF-NH2
notes: kisspeptin-10 analogue; also called compound 210
With B2, in the experiment with human gpr-54 receptor [1], the “Inhibition … % Inhibition of Max” value was 64% and the “Inhibition of IP stimulation … IC50” value was under 0.1 nM. Besides, the “IP competition with 10nM kisspeptin-10: IC50 [210]” value with human gpr-54 receptor [2] is under 0.1 nM. Also, in the experiment with human gpr-54 receptor [6], the IC50 worked out at 1300 nM.

B3: 239 (peptide)
peptide: Ac-[dY][dN]WNSFGWRF-NH2
SMILES: CC(=O)N[C@H](Cc1ccc(O)cc1)C(=O)N[C@H](CC(N)=O)C(=O)N[C@@H](Cc1c[nH]c2ccccc12)C(=O)N[C@@H](CC(N)=O)C(=O)N[C@@H](CO)C(=O)N[C@@H](Cc1ccccc1)C(=O)NCC(=O)N[C@@H](Cc1c[nH]c2ccccc12)C(=O)N[C@@H](CCCNC(=N)N)C(=O)N[C@@H](Cc1ccccc1)C(N)=O
Turning to B3, in the experiment with human gpr-54 receptor [1], the “IP stimulation (IC50), peptide alone” value was determined as 5 nM and the “Inhibition … % Inhibition of Max” value amounted to 0%. In the experiment with human gpr-54 receptor [7], the “IP dose response, peptide alone: EC50 (unlabelled number beside rising curve) [239]” value came out at 4.99 nM.

B4: 201 (peptide)
peptide: Ac-FGARW-NH2
notes: kisspeptin-10 analogue; also called acFGARW
With B4, in the experiment with human gpr-54 receptor [1], the “Inhibition … % Inhibition of Max” value was determined as 69% and the “Inhibition of IP stimulation … IC50” value turned out to be 7 nM. The “IP competition with 10nM kisspeptin-10: IC50 [201]” value with human gpr-54 receptor [8] came out at 7 nM. This molecule returned an IC50 with human gpr-54 receptor [9] of 0.00432 nM.

B5: 206 (peptide)
peptide: Ac-FG[dW]RF-NH2
SMILES: CC(=O)N[C@@H](Cc1ccccc1)C(=O)NCC(=O)N[C@H](Cc1c[nH]c2ccccc12)C(=O)N[C@@H](CCCNC(=N)N)C(=O)N[C@@H](Cc1ccccc1)C(N)=O
notes: kisspeptin-10 analogue; also called acFG[(D)-W]RF
As for B5, in the experiment with human gpr-54 receptor [1], the “Inhibition … % Inhibition of Max” value amounted to 68% and the “Inhibition of IP stimulation … IC50” value was 10 nM. The “IP competition with 10nM kisspeptin-10: IC50 [206]” value in the experiment with human gpr-54 receptor [10] is 10 nM. In addition, the IC50 with human gpr-54 receptor [11] was 0.0352 pM.

B6: 203 (peptide)
peptide: Ac-[dF]WLRW-NH2
SMILES: CC(=O)N[C@H](Cc1ccccc1)C(=O)N[C@@H](Cc1c[nH]c2ccccc12)C(=O)N[C@@H](CC(C)C)C(=O)N[C@@H](CCCNC(=N)N)C(=O)N[C@@H](Cc1c[nH]c2ccccc12)C(N)=O
notes: kisspeptin-10 analogue; also called ac[F-(D)]WLRW
As to B6, in the experiment with human gpr-54 receptor [1], the “IP stimulation (IC50), peptide alone” value amounted to 150000 nM; the “Inhibition … % Inhibition of Max” value worked out at 71%; the “Inhibition of IP stimulation … IC50” value turned out to be 0.1 nM. Further, in the experiment with human gpr-54 receptor [12], the “IP competition with 10nM kisspeptin-10: IC50 [203]” value came out at 0.1 nM and the “IP dose response, peptide alone: EC50 (unlabelled number beside rising curve; rise only at -5 LogM) [203]” value came to 0.000156 M. The IC50 with human gpr-54 receptor [13] was 0.000307 nM.

B7: 207 (peptide)
peptide: Ac-FG[dF]RF-NH2
SMILES: CC(=O)N[C@@H](Cc1ccccc1)C(=O)NCC(=O)N[C@H](Cc1ccccc1)C(=O)N[C@@H](CCCNC(=N)N)C(=O)N[C@@H](Cc1ccccc1)C(N)=O
notes: kisspeptin-10 analogue; also called acFG[(D)-F]RF
Turning to B7, the “Inhibition … % Inhibition of Max” value with human gpr-54 receptor [1] stood at 0%. For the same molecule, in the experiment with human gpr-54 receptor [14], the IC50 worked out at 110 nM.

B8: 202 (peptide)
peptide: Ac-AGLRW-NH2
notes: kisspeptin-10 analogue; also called acAGLRW
Take B8: in the experiment with human gpr-54 receptor [1], the “IP stimulation (IC50), peptide alone” value was over 100000 nM; the “Inhibition … % Inhibition of Max” value amounted to 64%; the “Inhibition of IP stimulation … IC50” value amounted to 10 nM. In the experiment with human gpr-54 receptor [12], the “IP competition with 10nM kisspeptin-10: IC50 [202]” value is 10 nM and the “IP dose response, peptide alone: EC50 (unlabelled number beside rising curve; rise only at -5 LogM) [202]” value came out at 0.00109 M. Moreover, in the experiment with human gpr-54 receptor [15], the half-maximal inhibitory concentration (IC50) is 0.00032 nM.
Regarding Ac-FG[dL]RW-NH2 [191], in the experiment with human gpr-54 receptor [1], the “IP stimulation (IC50), peptide alone” value stood at 20000 nM and the “Inhibition … % Inhibition of Max” value worked out at 79%. The “IP dose response, peptide alone: EC50 (unlabelled number beside rising curve) [191]” value with human gpr-54 receptor [16] was determined as 26100 nM.

B9: 186 (peptide)
peptide: Ac-NSFGLRF-NH2
notes: kisspeptin-10 analogue; also called Peptide 186; acNSFGLRF
Consider B9, for which, in the experiment with human gpr-54 receptor [1], the “IP stimulation (IC50), peptide alone” value was found to be 150 nM and the “Inhibition … % Inhibition of Max” value stood at 70%. For the same molecule, in the experiment with human gpr-54 receptor [17], the “IP competition with 10nM kisspeptin-10: IC50 [186]” value is 0.5 nM and the “IP dose response, peptide alone: EC50 (unlabelled number beside rising curve) [186]” value came out at 592 nM. Besides, the IC50 in the experiment with human gpr-54 receptor [18] was found to be 1850 nM.

B10: 237 (peptide)
peptide: Ac-[dY]NWNGFGWRF-NH2
SMILES: CC(=O)N[C@H](Cc1ccc(O)cc1)C(=O)N[C@@H](CC(N)=O)C(=O)N[C@@H](Cc1c[nH]c2ccccc12)C(=O)N[C@@H](CC(N)=O)C(=O)NCC(=O)N[C@@H](Cc1ccccc1)C(=O)NCC(=O)N[C@@H](Cc1c[nH]c2ccccc12)C(=O)N[C@@H](CCCNC(=N)N)C(=O)N[C@@H](Cc1ccccc1)C(N)=O
For B10, in the experiment with human gpr-54 receptor [1], the “IP stimulation (IC50), peptide alone” value came to 6400 nM and the “Inhibition … % Inhibition of Max” value turned out to be 0%. Besides, the “IP dose response, peptide alone: EC50 (unlabelled number beside rising curve) [237]” value in the experiment with human gpr-54 receptor [19] was determined as 6380 nM.

B11: 238 (peptide)
peptide: Ac-[dY]NWNSFG[dW]RF-NH2
SMILES: CC(=O)N[C@H](Cc1ccc(O)cc1)C(=O)N[C@@H](CC(N)=O)C(=O)N[C@@H](Cc1c[nH]c2ccccc12)C(=O)N[C@@H](CC(N)=O)C(=O)N[C@@H](CO)C(=O)N[C@@H](Cc1ccccc1)C(=O)NCC(=O)N[C@H](Cc1c[nH]c2ccccc12)C(=O)N[C@@H](CCCNC(=N)N)C(=O)N[C@@H](Cc1ccccc1)C(N)=O
For B11, in the experiment with human gpr-54 receptor [1], the “IP stimulation (IC50), peptide alone” value was determined as 2800 nM and the “Inhibition … % Inhibition of Max” value was 0%. Besides, in the experiment with human gpr-54 receptor [19], the “IP dose response, peptide alone: EC50 (unlabelled number beside rising curve) [238]” value worked out at 2820 nM.

B12: 209 (peptide)
peptide: YNWNGFG[dL]RF-NH2
modifications: N-terminus assumed
SMILES: CC(C)C[C@@H](NC(=O)CNC(=O)[C@H](Cc1ccccc1)NC(=O)CNC(=O)[C@H](CC(N)=O)NC(=O)[C@H](Cc1c[nH]c2ccccc12)NC(=O)[C@H](CC(N)=O)NC(=O)[C@@H](N)Cc1ccc(O)cc1)C(=O)N[C@@H](CCCNC(=N)N)C(=O)N[C@@H](Cc1ccccc1)C(N)=O
notes: kisspeptin-10 analogue; also called Peptide 209; YNWNGFG[(D)-L]RF
In the case of B12, in the experiment with human gpr-54 receptor [1], the “Inhibition … % Inhibition of Max” value came out at 81% and the “Inhibition of IP stimulation … IC50” value was 100 nM. Besides, the “IP competition with 10nM kisspeptin-10: IC50 [209]” value with human gpr-54 receptor [4] worked out at 100 nM. Further, in the experiment with human gpr-54 receptor [20], the IC50 is 0.0157 nM.

The term IC50 denotes the concentration at which inhibition is half-maximal. Low values mean higher potency, high ones lower potency.
